The test deals with Recombinant hemagglutinin of H3N2 A/Texas/50/2012, ectodomain, monomeric (Influenza A virus A/Texas/50/2012 (H3N2), UniProt R4L1D1, strain). The experiment in a line: SPR. As to conditions: both partners purified.

This is an account of results in article PMC6465249 (Cell Discovery, 2019).

What is called Kd is the constant that tells how readily two partners part at equilibrium.

B1: AF4H1K1 Fab (Fab, V domains shown)
VH: QVQLVESGGGVVQPGTSLRLSCEASGFTSSAYAMHWVRQAPGKGLEWVAVITFDGGYQYYADSVKGRFTISRDISRNTLHLHMNSLRAEDTAVYYCARDPLTKLLPFDWVSGGYFDYWGQGTLVTVSS
VL: not shown
notes: also called H1 paired with K1
With B1, the Kd turned out to be 49 nM.
